Earlier results on 1 substance are cited in article PMC2721158.

Data set [1] deals with cyclic HPQ peptide … (synthetic construct).
Data set [2] deals with linear HPQ peptide FSHPQNT (synthetic construct). Kind of data set: titration calorimetry.
The target of data set [3] is linear peptide HDHPQNL (synthetic construct). Kind of data set: titration calorimetry.

streptavidin, sequence (P22629 25-183): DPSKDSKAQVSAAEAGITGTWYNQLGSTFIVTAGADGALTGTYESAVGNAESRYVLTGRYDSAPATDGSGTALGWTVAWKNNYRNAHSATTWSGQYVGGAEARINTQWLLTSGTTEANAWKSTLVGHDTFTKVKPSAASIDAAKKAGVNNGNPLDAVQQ

By Kd is commonly meant the concentration at which binding is half-saturated. In the case of streptavidin (from UniProt P22629), the Kd is 230 nM in data set [1], 126 µM in data set [2] and 282 µM in data set [3].
